According to the nanobody polyreactivity screen of Harvey et al. (2022):

assay: yeast display, Sf9 membrane polyspecificity reagent, FACS + sequencing; frameworks hold sequencing errors
How it was run: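 Sorting gates, low and high (top ~1%), were placed on anti-HA fluorescence to track expression and on streptavidin fluorescence to track reagent binding. A clone's polyreactivity label is taken from the gate it came out of. The reagent was 10% biotinylated, detergent-solubilized Sf9 membrane, applied for 1 hour at 4 °C to galactose-induced yeast display cells.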

Sequence	polyreactivity (PSR sort gate)
QVQLVESGGGLVQAGGSLRLSCAASGFTFWYYAMGWYRQAPGKERELVATISRGGGSTYYADSVKGRFTISRDNAKNTVYLQMNSLKPEDTEVYYCNAVRVHAYSTGEYGYWGQGTQVTVSS	high polyreactivity
QVQLVESGGGLVQAGGSLRLSCAASGFTFWYYAMGWYRQAPGKERELVATITSGDSTKYADSVKGSFTISRDNAKNTVFLQMNSLNPEDNAVYYCAAEKVLPFIGYDYWGQGTQVTVSS	low polyreactivity
QVQLVESGGGLVQAGGSLRLSCAASGFTFYANTMGWYRQAPGKERELVAAISKSGGRTYYADSVKGRFTISRDNAKNTVYLQMNSLKPEDTAVYYCAASSGYKRNYWGQGTQVTVSS	high polyreactivity
QVQLVESGGGLVQAGGSLRLSCAASGFTFYAYAMGWYRQAPGKERELVAAISGRGTSTYYADSVKGRFTISRDNAKNTVYLQMNSLKPEDTAFYYCIKYPLRLYGYDYWGQGTQVTVSS	high polyreactivity
QVQLVESGGGLVQAGGSLRLSCAASGFTFYDYAMGWYRQAPGKQREFVAAITWSGSSTYYADSVKGRFTISRDNAMNTVYLQMKSMKPEDTEVYYCAVGPFRRRGHYPTYYRYGYWGQGTEVTVSS	high polyreactivity
QVQLVESGGGLVQAGGSLRLSCAASGFTFYDYDMGWSRQAPGKERELVATITWSGGRTYYADSVKGRFTISRDNAKNTVYLQMNSLKPEDTAVYYCAADEPDRDYGYWGQGTQVTVSS	low polyreactivity
QVQLVESGGGLVQAGGSLRLSCAASGFTFYGYAMGWYRPAPGKERELVAAISWSGGSTFYADSVKGRFTISRDNAKNTVYLQMNSQKAEDTAVDYCNAKVYPWGYYTSWRTVSPYDYWGQGTQVSVSS	high polyreactivity
QVQLVESGGGLVQAGGSLRLSCAASGFTFYGYAMGWYRQAPGKERELVAAISSSGGRTYYADSVKGRFTISRDNEKNTVYLQMNSLKPEDTAVYYCAAEYRSYRDGYWGLGTQVTVSS	high polyreactivity
QVQLVESGGGLVQAGGSLRLSCAASGFTFYGYGMGWYRQAPGKERELVAVITSGGSTKYADSVKGRFTISRDNAKNTVDLQMNSLKPEDTAVYYCNVVGGRYLYSAYDYWGQGTQVTVSS	low polyreactivity
QVQLVESGGGLVQAGGSLRLSCAASGFTFYGYTMGWYRQAPGKERELVAAISRSGGRTYYADSVKGRFTISRDNAKNTVYLQMNSLKPEDTAVYYCAGDSRTNGYDYWGQGTQVTVSS	high polyreactivity
QVQLVESGGGLVQAGGSLRLSCAASGFTFYGYVMGWYRQAPGKERELVASIRSRGSRTSYADSVKGRFTISRDNAKNTVYLQMNSLKPEDTAVYYCAASRGRLPYSSTSNGDYDYWGQGTQVTVSS	high polyreactivity
QVQLVESGGGLVQAGGSLRLSCAASGFTFYHYAMGWYRQAPGKERELVAAISRSAGSTYYADSVKGRFTISRDNAKNTVYLQMNSLKPEDTAVYYCAKVLRAKNSFDYWGQGTHVTVSS	high polyreactivity
QVQLVESGGGLVQAGGSLRLSCAASGFTFYIYAMGWYRQAPGKERELVAAITTTTGSTYYADSVKGRFTISRDNAKNTVYLQMNSLKPEDTAVYYCAAEGHYYYFGYYYWGQGTQVTVSS	low polyreactivity
QVQLVESGGGLVQAGGSLRLSCAASGFTFYKNAMGWYRQAPGKERELVATISSGGSTYYADSVKGRFTISRYNAKNTVYLQLNSLKPEDTAVYYCAARVHHGYYSISYYYWGQGTQVTVSS	high polyreactivity
QVQLVESGGGLVQAGGSLRLSCAASGFTFYLNAMGWYRQAPGKERELVAAISYSDGSTYYADSVKGRFTISRDNAKNTVYFQMNSLKPEDSAVYYCDADTTDPGGAFQLKDYWGQGTQVTVSS	high polyreactivity
QVQLVESGGGLVQAGGSLRLSCAASGFTFYLYAMGWYRQAPGKERELVAAISSGSTTYYADSVKGRFTISRDNAKNTVYLQMNSLKPEDTAVYYCNAYYVNYVSNYEYWGQGTQVTVSS	high polyreactivity
QVQLVESGGGLVQAGGSLRLSCAASGFTFYLYTMGWYRQAPGKERELVATITSDGGTNYADSVKGRFTISRDNAKNTVYLQMNSLKPEDTAVYYCNAASRRGSRKQAKYDYWGQGTQVTVSS	low polyreactivity
QVQLVESGGGLVQAGGSLRLSCAASGFTFYNVMGWYRQAPGKERELVATISTSVDSTYYADSVKGRFTISRDNAKNTVYLQMNSLKPEDTAVYYCNADISSNYYDYFGYDYWGQGTQVTVSS	low polyreactivity
QVQLVESGGGLVQAGGSLRLSCAASGFTFYNYAMGWYRPAPGKERELVAAITKSGSRTYYADSVKGRFTISRDNAKNTVYLQMNSLKPEDTAVYYCARDYTVRGYDYWGQGTQVTVSS	high polyreactivity
QVQLVESGGGLVQAGGSLRLSCAASGFTFYNYAMGWYRQAPGKERELVAAISTSGGSTYYADSVKGRFTISRDNAKNTVYLQMNSLKPEDTAVYYCAAQATAYSYAYYYWGQGTQVTVSS	low polyreactivity
QVQLVESGGGLVQAGGSLRLSCAASGFTFYPYAMGCYRQAPGKERELVDAISNGASTHYADSVKGRFTISRDNAKNTVYLQMNSLKPEDTAVYYCNAYTRYPFYFVTSKYDYWGQGTQVTVSS	low polyreactivity
QVQLVESGGGLVQAGGSLRLSCAASGFTFYPYAMGWYRQAPGKESEFVAAITWRGASTYYADSVKGRFTISRDNAKNTVYLQMNSLKPEDTAVYYCNARWRVPRYRYDYWGQGTQVTVSS	high polyreactivity

Sequence	polyreactivity (PSR sort gate)
QVQLVESGGGLVQAGGSLRLSCAASGFTFYQNAMGWYRQAPGKEREFVAAISRRGGSTYYADSVKGRFTISRDNAKNTVYLQMNSLKPEDTAVYYCAADYKRKSDGDYWGQGTQVTVSS	high polyreactivity
QVQLVESGGGLVQAGGSLRLSCAASGFTFYRNAMGWSRQAPGKERELVAAISRGGRTYYADSVKGRFTISRDNAKNTVYLQMNSLKPEDTAVYYCAVGYSGYGSSMDYWGQGTQVTVSS	high polyreactivity
QVQLVESGGGLVQAGGSLRLSCAASGFTFYRNAMGWYRQAPGKERELVAAISGSGGRTYADSVKGRFTISRDIAKNTVYLQMNSLKPEDTAVYYCAASGYSSYRRYSTSNGYWGQGTQVTVSS	high polyreactivity
QVQLVESGGGLVQAGGSLRLSCAASGFTFYRNAMGWYRQAPGKERELVAAISWSGDSTYYADSVKGRFTISRDNAKNTVYLQMNSLKPEDTAVYYCDKERYFYYPWVTTYTSNYWGQGTQVTVSS	low polyreactivity
QVQLVESGGGLVQAGGSLRLSCAASGFTFYRNAMGWYRQAPGKERELVAAITWSGTSTYYADSVKGRFTISRDNAKNTVYLQMNSLKPEDTAVYYCNTVGYRGRSNSRFYYWGQGTQVTVSS	high polyreactivity
QVQLVESGGGLVQAGGSLRLSCAASGFTFYRNAMGWYRQAPGKERELVAGISKRGGSTYYADSVKGRFTISRDNAKNTVYLQMNSLKPEDTAVYYCARGGYPGSAEYDYWGQGTQVTVSS	high polyreactivity
QVQLVESGGGLVQAGGSLRLSCAASGFTFYRYAMGWYRQAPGKERELVAAISWSGASTYYADSVKGRFTISRDNAKNTVYLQMNSLKPEDTPVYYCNAYDTYLGGFDYWGQGTQVTVSS	high polyreactivity
QVQLVESGGGLVQAGGSLRLSCAASGFTFYRYAMGWYRQAPGKERELVAAITQSGGSTYYADSVKGRFTISRDNAKNTVYLQMNSLKPEDTAVYYCAARYRYDYGYGLGYSWGQGTQVTVSS	high polyreactivity
QVQLVESGGGLVQAGGSLRLSCAASGFTFYRYAMGWYRQAPGKERELVAAITSGGSTNYADSVKGRFTISRDNANNTVYLQMNSLKPEDTAVYYCNAGRYVRWWWYSPDDYWGQGTQVTVSS	high polyreactivity
QVQLVESGGGLVQAGGSLRLSCAASGFTFYRYAMGWYRQAPGKERELVATISASGGSTYYADSVKGRFTISRDNAKNTVYLQMISLKPEDTAVYYCAVRTIWRFRYDYWGQGTQVTVSS	high polyreactivity
QVQLVESGGGLVQAGGSLRLSCAASGFTFYRYAMGWYRQAPGKESELVAAISGSGGSTYYADSVKGRFTISRDNAKNTVYLQMNSLKPEDTAVYYCNTVWFYGAKYDYWGQGTQVTVSS	high polyreactivity
QVQLVESGGGLVQAGGSLRLSCAASGFTFYSNAMGWYRQAPGKERELVAAINWGGGSTYYADSVKGRFTISRDNAKNTVNLQMNSLKPEDTAVYYCAAEPIWEYWNGVSYAYDYWGQGTQVTVSS	low polyreactivity
QVQLVESGGGLVQAGGSLRLSCAASGFTFYSNAMGWYRQAPGKERELVARITKRGGSTYYADSVKGRFTISRDNAKNTVYLQMNSLKPEDTAVYYCAADDGSDAEYYYWGQGTQVTVSS	high polyreactivity
QVQLVESGGGLVQAGGSLRLSCAASGFTFYSYAMGWYRQAPGKERELVAAISRSGGSTRYADSVKGRFTISRENAKNTVYLQMNSLKPEDTAVYYCNAGKDRAYDYWGQGTQVTVSS	high polyreactivity
QVQLVESGGGLVQAGGSLRLSCAASGFTFYSYARGWYRQAPGKERELVAVINSSGGRTFYADSVKGRFTISRDNAKNTVYLQMNSLKPEDTAVYYCAARYAASRGPNQGKGNYWGQGTQVTVSS	high polyreactivity
QVQLVESGGGLVQAGGSLRLSCAASGFTFYSYVIGWYRQAPGKERELVAAITRGGSTYYADSVKGRFTISRDNAKNTVYLQMNSLKPEDTAVYYCAKRPSYGYNYWGQGTQVTVSS	low polyreactivity
QVQLVESGGGLVQAGGSLRLSCAASGFTFYTYAMGWYRQAPGKERELVAAINRSGGRTFYADSVKGRFTISRDNAKNTDYLQMNSLKPEDTAVYYCAADSRPYVGGMDYWGQGTQVTVSS	high polyreactivity
QVQLVESGGGLVQAGGSLRLSCAASGFTFYTYAMGWYRQAPGKERELVAGISTRGGRTYYADSVKGRFTISRDNAKNTVYLQMNSLKPEDTAVYYCNAVDKTGKYDYWGQGTQVTVSS	high polyreactivity
QVQLVESGGGLVQAGGSLRLSCAASGFTFYTYTMGWYRQAPGKERELVAVISRSGGSTYYADSVKGRFTISRDNAKNTVYLQMNSLKPEDTAVYYCNKVGIYGSRSRYDSWGQGTQVTVSS	high polyreactivity
QVQLVESGGGLVQAGGSLRLSCAASGFTFYVNAMGWYRQAPGKERELVAAISSSGTRTYYADSVKGRFTISRDKAKNTVYLQMNSLKPEDTAVYYCAARGQAYSGDRMYYWGQGTQVTVSS	high polyreactivity
QVQLVESGGGLVQAGGSLRLSCAASGFTFYVNAMGWYRQAPGKERELVAAITYDGDSTYYADSVKGRFTISRDNAKNTVYLQMNSLKPEDTAVYYRNTVYGPDLDGTEYDYWGQGTQVTVSS	low polyreactivity
